Data on 5 molecules can be found in US20080213277A1 (Amgen, published 2008).

First the molecules themselves.
B1: murine anti-human hepcidin monoclonal antibody 2.7 (antibody, V domains shown)
VH: QIQLVQSGPELKKPGETVKISCKASGYTFTTYGMSWVKQAPGKGLKWMGWINTYSGVPTYADDFKGRFAFSLETSASTAYLQINNLKNEDTATYFCGRDHYYGEVAYWGQGTLVTVSA
VL: DIVLTQSPASLAVSLGQRATISCRASESVDSYGNSFMHWYQQKPGQPPKLLIYRASNLESGIPARFSGSGSRTDFTLTINPVEADDVATYYCHQSNEEYTFGGGTKLEIK
notes: Mouse hybridoma monoclonal; Murine IgG1 was used as its isotypic control; also called Ab2.7; Ab 2.7
B5: human hepcidin (SEQ ID NO: 9), mature, correctly folded (peptide)
peptide: DTHFPICIFCCGCCHRSKCGMCCKT
modifications: disulfide 10-13, 11-19, 14-22, 7-23; not fully specified
notes: 25-residue mature peptide with four disulfides (C7-C23, C10-C13, C11-C19, C14-C22); Recombinant (E. coli or CHO) or synthetic, by assay; also called rhHepc; shHepc

Assay [1] deals with B5. Kind of assay: BIAcore: 1 nM antibody over immobilized rhHepc surface, no competitor (reference). The procedure: (§1) Recombinant hepcidin was immobilized on a CM5 chip according to manufacturer's instructions at a flow rate 10 μL/min of running buffer (DPBS: Dulbecco's Phosphate Buffer Saline1X, GIBCO 14190, with 0.005% BIAcore surfactant P-20). The carboxylated matrix of the sensor chip was first activated with a 100 μL injection of 1:1 mixture of EDC (75 mg/mL N-ethyl-N-(dimethylamine-propyl)carbodiimide in water, from Biacore) and NHS (11.5 mg/mL N-hydroxysuccinimide in water, from Biacore). […] The excess reactive groups of the sensor chip were deactivated with an injection of 100 μL of ethanolamine (1.0M, from Biacore).
(§2) The binding signal obtained was proportional to the concentration of free antibody in solution at equilibrium.
In general terms: In SPR one partner is held on a chip, and binding of the other changes the refractive index at the surface.

Assay [2] deals with T1, recombinant cyno hepcidin (SEQ ID NO: 6) (cynomolgus monkey).
T1 construct: also called rcyno hepcidin; rcynoHepc
T1 peptide: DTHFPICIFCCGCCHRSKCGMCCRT
Kind of assay: KinExA solution equilibrium: fixed antibody + varied rcyno hepcidin, free antibody captured on rcyno hepcidin-coated beads. From the text:
Reacti-Gel 6× beads (Pierce, Rockford, Ill.) were pre-coated with rcyno hepcidin (SEQ ID NO: 6) and blocked with BSA according to manufacturer's instructions. […] The amount of the bead-bound antibody was quantified by fluorescently (Cy5)-labeled goat anti-murine-IgG (H+L) antibody (Jackson Immuno Research, West Grove, Pa.). The binding signal is proportional to the concentration of free antibody at equilibrium. Dissociation equilibrium constant (KD) was obtained from nonlinear regression of the competition curves using a dual-curve one-site homogeneous binding model (KinExA™ Pro software).
(In general: In KinExA the mixture passes briefly over coated beads that capture the unbound partner.)

For assay [3], the target named is B5. In words: BIAcore solution equilibrium: fixed antibody incubated with varied hepcidin, free antibody read on immobilized hepcidin chip. The procedure: (§3) Preparation of BIAcore chip surfaces: Immobilization of proteins to a BIAcore was performed according to manufacturer's instructions at a flow rate 10 μL/min of running buffer (DPBS: Dulbecco's Phosphate Buffer Saline1X, GIBCO 14190, with 0.005% Biacore surfactant P-20). The carboxylated matrix of the sensor chip was first activated with a 100 μL injection of 1:1 mixture of EDC (75 mg/mL N-ethyl-N-(dimethylamine-propyl)carbodiimide in water, from BIAcore) and NHS (11.5 mg/mL N-hydroxysuccinimide in water, from Biacore). […] The excess reactive groups of the sensor chip were deactivated with an injection of 100 μL of ethanolamine (1.0M, from Biacore).
(§4) Equilibrium binding analysis of antibody/hepcidin interactions on immobilized hepcidin surface: Fixed concentrations of antibody were incubated with various concentrations of hepcidin at room temperature for several hours before run through the immobilized hepcidin surface. After each sample injection, the surfaces were regenerated by injecting 30 μL […] glycine, pH1.5. The binding signal obtained is proportional to the free antibody in solution at equilibrium. The equilibrium dissociation constant (KD) was calculated from nonlinear regression analysis of the competition curves using a one or dual-curve one-site homogeneous binding model (KinExA™ software, Sapidyne Instruments Inc., Boise Id.).

Assay [4] deals with T2, recombinant mouse hepcidin (SEQ ID NO: 80) (mouse, not fully specified).
T2 construct: also called murine hepcidin
T2 peptide: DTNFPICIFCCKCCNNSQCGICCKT
The assay is described as above. The procedure: as §3, §4

The target of assay [5] is T3, recombinant human prohepcidin (SEQ ID NO: 102) (human).
T3 chain: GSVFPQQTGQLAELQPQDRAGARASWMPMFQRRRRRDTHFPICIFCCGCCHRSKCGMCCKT
Kind of assay: sandwich immunoassay: Ab2.7 capture, biotinylated rabbit anti-prohepcidin polyclonal detection; the prohepcidin concentration is varied (buffer curves). On the procedure: In order to reliably assess prohepcidin concentrations, a prohepcidin standard was measured after incubation for 60 minutes at 25° C. in a range of different buffers or sera.

Assay [6] addresses B5. Kind of assay: BIAcore: 1 nM antibody preincubated with 10 nM of this hepcidin form in solution, then run over immobilized rhHepc surface; % = free antibody still binding the surface (low % = strong binding to the solution form). The procedure: as §1, §2
Assay [7] deals with T4, hepcidin 20 (SEQ ID NO: 96) (human).
T4 construct: also called Hepc20; hepc20
T4 peptide: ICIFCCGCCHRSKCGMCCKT
The description is as above. The procedure: as §1, §2

Assay [8] addresses T1, recombinant cyno hepcidin (SEQ ID NO: 6). In words: BIAcore solution equilibrium: fixed rcynoHepc + varied antibody, free rcynoHepc read on immobilized antibody surface. On the procedure: The immobilization was performed at a flow rate 10 uL/min of running buffer (DPBS: Dulbecco's Phosphate Buffer Saline1, GIBCO 14190, with 0.005% BIAcore surfactant P-20) according to manufacturer's instructions. The carboxylated matrix of the sensor chip was first activated with a 100 ul injection of 1:1 mixture of EDC (75 mg/mL N-ethyl-N-(dimethylamine-propyl)carbodiimide in water, from BIAcore) and NHS (11.5 mg/mL N-hydroxysuccinimide in water, from BIAcore). 180 ul of antibodies (˜20 ug/ml in 10 mM Na-acetate pH4.0) was injected to immobilize onto the sensor chip at 30 uL/min. The excess reactive groups of the sensor chip were deactivated with an injection of 100 uL of ethanolamine (1.0M, from BIAcore).
The binding signal obtained is proportional to the free rcynoHepc in solution at equilibrium. The equilibrium dissociation constant (KD) was calculated from nonlinear regression analysis of the competition curves using a one-curve one-site homogeneous binding model (KinEx™ software, Sapidyne Instruments Inc., Boise Id.).

The target in assay [9] is T4, hepcidin 20 (SEQ ID NO: 96). Kind of assay: BIAcore solution competition: 1 nM antibody preincubated with 10 nM antigen, then immobilized hepcidin surface; '-' = no inhibition by the solution form. The procedure: as §1, §2
Assay [10] addresses B1. In words: competitive binding assay: unlabeled human hepcidin against 0.25 nM biotinylated hepcidin for Ab2.7; standards in rabbit serum. The procedure:
(§5) Hepcidin levels were determined using hepcidin standards of varying concentrations (from 1.4-300 ng/ml) spiked into buffer (5% BSA:I-block), rabbit serum, or pooled human serum. […] 25 μl/well of mixed solution was added to Black half area plates coated with 1-2 μg/mL G×M capture antibody. 25 μL/well of biotinylated hepcidin was added at 0.25 nM. The plate was covered with plate film sealer and incubated at room temperature (25° C.) on a plate shaker at around ≦200 RPM for around 60 minutes. The plate was washed and then 50 μL/well of Poly horseradish peroxidase amplification reagent at 1:2000 was added. The plate was allowed to sit for 30 minutes and was then washed with a plate washer using PBS or KPL buffer 6 times. The plate was patted dry and a luminescent substrate (Femto or Pico) was quickly added. The plate was read with luminometer (ex: Lmax 340) for 1 second using Femto or Pico Substrate. […] (FIG. 30).

The target in assay [11] is B1. Kind of assay: competitive binding assay: unlabeled human hepcidin against 0.25 nM biotinylated hepcidin for Ab2.7; standards in 5% BSA:I-block buffer. On the procedure: as §5

Bridge positions count the residues as written; N and C are the ends. Ends that are not written are not given here.

What is called Kd is the equilibrium constant for the complex coming apart. A word on the EC50 (read off the curve): it is the concentration at which the effect is half-maximal. For B1, the “Binding to Hepcidin Surface (%)” value in assay [1] came out at 100%; in [6] it was 2%; in [7], 3%. For the same molecule, the Kd is about 0.016 nM in assay [2], 0.11 nM in assay [3] and 40 nM in [4]. In addition, the “EC50 (read off the curve)” value in [5] is about 10 ng/mL.

B2: murine anti-human hepcidin monoclonal antibody Ab43 (antibody, V domains shown)
VH: QIQLVQSGPELKKPGETVKISCKASGYTFTTYGMSWVKQAPGKGLKWMGWINTYSGVPTYADDFKGRFAFSLETSASTAYLQINNLKNEDTATYFCASLWYYGRAFDYWGQGTTLTVSS
VL: NIVLTQSPASLAVSLGQRATISCRASESVDSYGNSFMHWYQQKPGQPPKLLIYLASNLESGVPARFSGSGSRTDFTLTIDPVEADDAATYYCQQNNEDRTFGGGTKLEIK
notes: Mouse hybridoma monoclonal; also called mAB 43
For the molecule B2, the “Binding to Hepcidin Surface (%)” value in [1] was determined as 100%; in assay [6], 11%; in assay [7] it was 100%. The Kd in assay [8] is about 0.1 nM; in assay [3], 0.56 nM; in assay [4], 14 nM. For the same molecule, the binding result in assay [9] is listed as “no binding (tested: 10 nM)”.

B3: murine anti-human hepcidin monoclonal antibody 2.41 (antibody, V domains shown)
VH: QIQLVQSGPELKKPGETVKISCKASGYTFTTYGMSWVKQAPGKGLKWMGWINTSSGVPTYADDFMGRFAFSLETSASTAYLQINNLKNEDTATYFCARDRYYGEVAYWGQGTLVTVSA
VL: DIVLTQSPASLAVSLGQRATISCRASESVDSFGNSFMHWYQLKPGQPPKLLIYRASNLESGIPARFSGSGSRTDFTLTINPVEADDVAIYYCQQSNEEYTFGGGTKLEIK
notes: Mouse hybridoma monoclonal
B3: the “Binding to Hepcidin Surface (%)” value in assay [1] is 100%; in assay [6], 0%; in [7], 1%. The figures for the Kd in assay [2], in assay [3] and in assay [4] were about 0.009 nM, 0.05 nM and 30 nM, respectively.

B4: rat anti-human hepcidin monoclonal antibody R9 (antibody, V domains shown)
VH: QVTLKESGPGILQPSQTLSLTCSFSGFSLSTSGICVSWIRQPSGKGLEWLATICWEDSKGYNPSLKNRLTISKDTSNNQAFLKITSVDTADTAIYYCARPLNYGGYSELELDYWGQGVMVTVSS
VL: DIQMTQSPSLLSASVGDRVTLSCKASQNIYKYLNWYQQKLGEAPKLLIYYTNSLQTGIPSRFSGSGSGTDFTLTISSLQPEDVATYYCYQYNSGPTFGAGTKLELK
notes: Rat hybridoma monoclonal; also called mAb R9
Turning to B4, the entries for the “Binding to Hepcidin Surface (%)” value in assay [1], in [6] and in assay [7] were 100%, 79% and 88%, respectively. Also, the values for the Kd in assay [8], in [3] and in assay [4] were about 10 nM, 21 nM and 20 nM, respectively.

In the case of B5, the “IC50 (read off the curve)” value in [10] and in assay [11] was about 7 ng/mL each time.
